The source of these data is US20230295288A1 (TILLOTTS PHARMA, published 2023).

In assay [1] the target is T1, TNFα (human, UniProt P01375 77-233). As to the kind of experiment: cell-based or functional assay.
Assay [2] concerns the target T2, monomeric His-tagged human FcRn (human, UniProt P55899 24-297; P61769 21-119).
T2 construct: The b2m chain is an addition from general knowledge; also called hFcRn; neonatal Fc receptor
In words: SPR, pH 6.0, KD against that of Ab-wt; pH 6.0; KD ratio to Ab-wt. For orientation: In SPR one partner is held on a chip, and binding of the other changes the refractive index at the surface.
Method: (§1) SPR was performed using a Biacore 3000 instrument with CM5 sensor chips coupled with anti-TNFα IgG1 antibodies (˜500 resonance units (RU)) using amine-coupling chemistry as described by the manufacturer. The coupling was performed by injecting 2.0 ug/mL of each protein in 10 mM sodium acetate, pH 4.5, using the amine-coupling kit (GE Healthcare). […] All SPR experiments were conducted at 25° C. with a flow rate of 40 ul/min. Binding data were zero-adjusted, and reference cell value subtracted. The Langmuir 1:1 ligand binding model provided by the BlAevaluation software (version 4.1) was used to determine the binding kinetics.

Assay [3] concerns the target T2, monomeric His-tagged human FcRn. As to the kind of experiment: SPR, pH 6.0, KD against that of infliximab; pH 6.0; KD ratio to IFX.
Method: as §1
The target of assay [4] is T1, TNFα. In words: SPR (Biacore), antibody captured on Protein A, TNFα as analyte, single cycle kinetics, 1:1 model, 25 °C.
Method: Affinity to TNFα was measured by Biacore. A CM5 chip was prepared using standard amine immobilisation Biacore procedures. Upon insertion of a CM5 chip the system was primed and then normalised with BIA-normalising solution (Biacore Preventative Maintenance Kit 2). The chip was added to the system with Phosphate Buffered Saline Tween-20 (PBS-T) running buffer; prior to immobilisation the chip surface was primed with three injections of 50 mM NaOH. Protein A was immobilised on the chip surface. For this, the protein was diluted to 5 μg/mL into 10 mM acetate buffer at pH 4.5 and injected so to generate a bound response of ˜1000 RU's in all 4 flow cells. To remove non-covalently bound material from all the chip flow cells, three 15 second 50 mM NaOH washes were performed. On the Protein A chip, antibody was captured in flow cells 2 and 4, with flow cells 1 and 3 used for reference subtraction. The trial antibodies were diluted in PBS-T to 10 nM and 2.5-7.5 uL injected to obtain 120 RU of captured antibody. […] For each single cycle analysis cycle a titration of 5 analyte concentrations were injected over the ligand and then the dissociation of the complex was measured. The surface was regenerated using glycine pH 1.7. A double referencing method was employed in which data from the ligand bound capture surface (fc 2 and 4) were subtracted from the references surfaces where no ligand was captured (fc 1 and 3 respectively). Blank injections of buffer were run every 3-4 cycles and then subtracted from analyte injection cycles, to correct for small changes in the ligand capture surface. Repeat injections of analyte at the start and end of each analytical run were used to check for sample degradation, or changes in the instrument performance. All analysis was performed at 25° C. and the sample rack was incubated at 10° C. during experimental runs. Each experiment was run at least three times. A 1-to-1 binding model was used to fit the resulting kinetic data.
A further assay concerns the target T3, CD16a(V) (UniProt P08637 17-208).
T3 construct: Captured on an anti-His tag chip, so it carried a His tag; also called Fcγ receptor CD16a(V)
As to the kind of experiment: SPR (Biacore), His-tagged FcγR captured on anti-His chip, antibody as analyte, single cycle kinetics, 25 °C.

In the next assay the target is T4, CD16a(F) (UniProt P08637 17-208).
T4 construct: Captured on an anti-His tag chip, so it carried a His tag
The assay is described as above.

The target in another assay is T5, CD16b(NA2) (UniProt O75015 17-200, limits assumed).
T5 construct: Captured on an anti-His tag chip, so it carried a His tag
The description is as above.

The target in assay [5] is T2, monomeric His-tagged human FcRn. In words: SPR (Biacore 3000), antibody amine-coupled, monomeric His-tagged hFcRn as analyte, pH 6.0, 1:1 Langmuir model, 25 °C; pH 6.0.
Method: as §1

Residue numbers refer to the chain shown, from its start.

By Kd is commonly meant the equilibrium constant for the complex coming apart. A lower Kd goes with a tighter complex. As usually defined, the koff is the first-order rate constant of dissociation. Higher therefore signals a short-lived complex. What is called kon is the second-order rate constant of association. A higher kon goes with faster complex formation.

T1 sequence (P01375 77-233 limits assumed): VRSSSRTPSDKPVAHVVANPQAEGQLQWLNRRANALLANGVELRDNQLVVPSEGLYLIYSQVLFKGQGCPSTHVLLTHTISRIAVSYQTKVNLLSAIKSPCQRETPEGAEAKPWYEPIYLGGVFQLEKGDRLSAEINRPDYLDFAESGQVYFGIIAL
T5 sequence (O75015 17-200 N65S limits assumed): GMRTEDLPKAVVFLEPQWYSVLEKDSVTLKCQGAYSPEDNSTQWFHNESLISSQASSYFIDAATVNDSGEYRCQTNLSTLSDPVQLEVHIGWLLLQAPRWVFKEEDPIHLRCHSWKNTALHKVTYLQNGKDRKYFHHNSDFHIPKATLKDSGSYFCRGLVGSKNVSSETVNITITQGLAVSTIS
T3 sequence (P08637 17-208 F176V limits assumed): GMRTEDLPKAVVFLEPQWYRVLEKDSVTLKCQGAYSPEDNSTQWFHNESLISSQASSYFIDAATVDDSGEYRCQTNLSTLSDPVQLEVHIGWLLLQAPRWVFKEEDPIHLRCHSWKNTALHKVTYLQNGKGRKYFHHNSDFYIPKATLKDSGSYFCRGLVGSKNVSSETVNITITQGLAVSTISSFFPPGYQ
T2 sequence (P55899 24-297 limits assumed, chain 1 of 2): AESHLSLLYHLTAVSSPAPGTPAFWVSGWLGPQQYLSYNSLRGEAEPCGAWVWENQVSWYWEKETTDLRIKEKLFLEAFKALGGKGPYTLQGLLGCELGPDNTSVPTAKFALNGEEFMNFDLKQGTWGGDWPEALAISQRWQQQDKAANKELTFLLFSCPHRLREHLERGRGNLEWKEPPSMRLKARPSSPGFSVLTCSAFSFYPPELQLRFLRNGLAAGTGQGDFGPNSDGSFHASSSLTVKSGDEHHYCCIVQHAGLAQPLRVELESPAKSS
T2 sequence (P61769 21-119 limits assumed, chain 2 of 2): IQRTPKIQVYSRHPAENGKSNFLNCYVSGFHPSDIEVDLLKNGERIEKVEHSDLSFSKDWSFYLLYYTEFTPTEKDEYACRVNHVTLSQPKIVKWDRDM
T4 sequence (P08637 17-208 limits assumed): as the sequence (P08637 17-208 F176V limits assumed) above, with V160F counted along it
Method for CD16a(F): (§2) Affinity to FcγRs was measured by Biacore. A CM5 chip was prepared using standard amine immobilisation Biacore procedures. Upon insertion of a CM5 chip the system was primed and then normalised with BIA-normalizing solution (Biacore Preventative Maintenance Kit 2). The chip was added to the system with PBS-T running buffer; prior to immobilisation the chip surface was primed with three injections of 50 mM NaOH. FcγRs were immobilised on the chip surface using a His-tag capture system. The anti-His tag chip was prepared according to the Biacore kit instructions, with ˜12000 RU's of the antibody deposited on all 4 flow cells. To remove non-covalently bound material from all the chip flow cells, three 30 second 10 mM glycine pH 1.5 washes were performed. The Fcγ receptors were diluted in PBS-T to a range of 0.5-2 μg/mL, with 2.5-5.0 μL injected onto the chip generating capture levels between 60 and 200 RU's. Antibodies were diluted into PBS-T prior to analysis. Single cycle kinetics were used to estimate the steady state affinity. For each single cycle analysis cycle a titration of 5 antibody concentrations were injected over the FcγR ligand and then the dissociation of the complex was measured. The surface was regenerated using the recommended solution, 10 mM glycine pH 1.5 for the anti-His capture surface. A double referencing method was employed in which data from the ligand bound capture surface (fc 2 and 4) were subtracted from the references surfaces where no ligand was captured (fc 1 and 3 respectively). Blank injections of buffer were run for every antibody titration cycle and then subtracted from analyte injection cycles, to correct for small changes in the ligand capture surface. All analysis was performed at 25° C. and the sample rack was incubated at 10° C. during experimental runs. Each experiment was run at least three times.
Method for CD16a(V): as §2
Method for CD16b(NA2): as §2

B1: Ab-A-DLE-PVAΔG (antibody, human IgG1, kappa)
heavy: EVQLVESGGGLVQPGGSLRLSCKASGIDFNNYGIGWVRQAPGKGLEWITYIYPGFAITNFANSVKGRFTISSDNSKNTVYLQMNSLRAEDTAVYYCARDPVYATSSGYFDLWGQGTLVTVSSASTKGPSVFPLAPSSKSTSGGTAALGCLVKDYFPEPVTVSWNSGALTSGVHTFPAVLQSSGLYSLSSVVTVPSSSLGTQTYICNVNHKPSNTKVDKKVEPKSCDKTHTCPPCPAPPVAGPDVFLFPPKPKDTLMISRTPEVTCVVVDVSHEDPEVKFNWYVDGVEVHNAKTKPREEQYNSTYRVVSVLTVLHQDWLNGKEYKCKVSNKALPLPEEKTISKAKGQPREPQVYTLPPSREEMTKNQVSLTCLVKGFYPSDIAVEWESNGQPENNYKTTPPVLDSDGSFFLYSKLTVDKSRWQQGNVFSCSVMHEALHAHYTQKSLSLSPGK
light: DIQMTQSPSSLSASVGDRVTIKCQASQSIFSGLAWYQQKPGKAPKLLIYGASKLASGVPSRFSGSGSGTEFTLTISGLQPADFATYYCQSYYYSSSSSDGSYAFGGGTKLTVLGRTVAAPSVFIFPPSDEQLKSGTASVVCLLNNFYPREAKVQWKVDNALQSGNSQESVTEQDSKDSTYSLSSTLTLSKADYEKHKVYACEVTHQGLSSPVTKSFNRGEC
On to B1, for which, in the assay with TNFα [1], the “IC50 (read off the curve), L929 TNFα neutralisation [upper panel]” value was around 7 ng/mL. Also, the “Fold change from wt” value in assay [2] was 6.4 fold. Further, the “Fold change from IFX” value in assay [3] amounted to 2.7 fold. For the same molecule, the Kd was determined as 0.00288 nM with TNFα [4]; 68.7 nM in the assay with CD16a(V); 110 nM with CD16a(F); 470 nM in the assay with CD16b(NA2); 157 nM in assay [5]. The same molecule registered a koff in the assay with TNFα [4] of 3.04e-05 s⁻¹. In addition, in the assay with TNFα [4], the kon was 1.13e+07 M⁻¹ s⁻¹.

B2: Ab-wt (antibody, human IgG1, kappa)
heavy: not shown
light: B1 light
notes: Human IgG1 anti-TNFα antibody with a wild-type Fc region; also called parent antibody; wild-type antibody
B2: in the assay with TNFα [1], the “IC50 (read off the curve), L929 TNFα neutralisation [lower panel]” value (“IC50 (read off the curve) … [lower panel]” below) is around 7 ng/mL. In addition, the Kd is 0.00413 nM with TNFα [4], 184 nM with CD16a(V), above 3000 nM with CD16b(NA2) and 1000 nM in assay [5]. The same molecule returned a koff with TNFα [4] of 3.45e-05 s⁻¹. Further, the kon in the assay with TNFα [4] came to 8.37e+06 M⁻¹ s⁻¹.

B3: Ab-YTE-DLE-PVAΔG (antibody, human IgG1, kappa)
heavy: B1 heavy with M256Y, S258T, T260E, A438N
light: B1 light
Regarding B3, the “IC50 (read off the curve) … [lower panel]” value with TNFα [1] was around 6 ng/mL. Besides, the “Fold change from wt” value in assay [2] worked out at 11.1 fold. The “Fold change from IFX” value in assay [3] amounted to 4.7 fold. In addition, the Kd in the assay with TNFα [4] stood at 0.00157 nM; with CD16a(V), 117 nM; with CD16b(NA2), 1030 nM; in assay [5], 90 nM. The molecule further came in with a koff with TNFα [4] of 1.28e-05 s⁻¹. The kon with TNFα [4] was 8.14e+06 M⁻¹ s⁻¹.

B4: Ab-A-AEA-PVAΔG (antibody, human IgG1, kappa)
heavy: B1 heavy with D243S, K330A, L334A, E337A
light: B1 light
As for B4, the “IC50 (read off the curve) … [lower panel]” value with TNFα [1] is around 9 ng/mL. In the assay with TNFα [4], this molecule came in with a Kd of 0.00251 nM, a koff of 2.19e-05 s⁻¹ and a kon of 9.16e+06 M⁻¹ s⁻¹. For the same molecule, in the assay with CD16a(V), the Kd amounted to 260 nM. Besides, binding in the assay with CD16b(NA2) was characterised by a dissociation constant (Kd) of 5180 nM.
